Data as given in US20220332804A1 (CSL INNOVATION, published 2022).
Where a chain is given by its changes, count along the chain named.

Columns and labels:
Experiment in all cases: SPR, mAb captured, C2 mutant analyte;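 also: Anti-C2 mAbs captured on goat anti-human IgG Biacore CM5 chips, alanine or serine C2 surface mutants flowed over at 37 °C, double-referenced sensorgrams fitted to a 1:1 binding model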
[1] = target: T1, human C2 K329A (human, UniProt P06681 21-752)
T1 sequence: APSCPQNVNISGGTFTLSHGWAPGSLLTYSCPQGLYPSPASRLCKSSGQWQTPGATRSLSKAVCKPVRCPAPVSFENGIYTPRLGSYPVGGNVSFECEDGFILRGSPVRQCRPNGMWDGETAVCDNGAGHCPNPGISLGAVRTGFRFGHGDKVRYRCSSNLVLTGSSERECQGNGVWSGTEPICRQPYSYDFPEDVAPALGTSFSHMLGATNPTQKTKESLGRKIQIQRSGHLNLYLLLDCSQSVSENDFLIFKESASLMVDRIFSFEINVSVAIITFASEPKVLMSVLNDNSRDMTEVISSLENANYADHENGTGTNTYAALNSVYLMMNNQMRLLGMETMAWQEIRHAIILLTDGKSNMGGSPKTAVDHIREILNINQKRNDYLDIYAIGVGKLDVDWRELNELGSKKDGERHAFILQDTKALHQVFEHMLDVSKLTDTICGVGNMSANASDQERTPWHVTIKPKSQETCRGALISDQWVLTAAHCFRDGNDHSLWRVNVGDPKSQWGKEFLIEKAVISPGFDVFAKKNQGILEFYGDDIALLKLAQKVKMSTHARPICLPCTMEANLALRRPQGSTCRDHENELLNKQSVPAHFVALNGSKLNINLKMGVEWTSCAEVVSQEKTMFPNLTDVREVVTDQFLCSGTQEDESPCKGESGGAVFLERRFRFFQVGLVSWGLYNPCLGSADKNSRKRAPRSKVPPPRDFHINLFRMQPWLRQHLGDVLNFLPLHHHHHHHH

[2] = target: T2, human C2 A470S (human, UniProt P06681 21-752)
T2 sequence: T1 sequence with A309K, A450S

[3] = target: T3, human C2 A326S (human, UniProt P06681 21-752)
T3 sequence: T1 sequence with A306S, A309K

[4] = target: T4, human C2 G432A (human, UniProt P06681 21-752)
T4 sequence: T1 sequence with A309K, G412A

B1: RF16-214 (antibody, V domains shown)
VH: EVQLLESGGGLVQPGGSLRLSCAASGFTFSWYQMMWVRQAPGKGLEWVSRIYPSGGGTAYADSVKGRFTISRDNSKNTLYLQMNSLRAEDTAVYYCARDAGYGDNWGQGTLVTVSS
VL: QSALTQPPSVSVSPGQTASITCSGDKLGEKYASWYQQKAGQSPVMVIYQDRKRPSGIPERFSGSNSGNTATLTISGTQAMDEADYYCQAWDTRAVVFGGGTKLTVLG
[1]
  Kd: 62.6 nM
[2]
  Kd: 32.8 nM
[3]
  Kd: 45.5 nM
[4]
  Kd: 26 nM
